Source: US20260265352A1, “STABLE PHARMACEUTICAL FORMULATION COMPRISING ANTI-GREMLIN1 ANTIBODY” (SUZHOU TRANSCENTA THERAPEUTICS CO., LTD., priority 2022, published 2026)

Experiments:
[1] = tested on: esophageal cancer PDX model E7; experiment: Tumor growth inhibition in esophageal cancer PDX model; format: in vivo, NOD/SCID mice; details: 26th day; antibody 20 mg/kg i.p. twice a week, cisplatin 3 mg/kg i.v. once a week, 4 weeks
Text: Human gremlin IHC specifically positive esophageal tumor tissue (E7) was obtained from Beijing Cancer Hospital passage in NOD/SCID mice and established PDX bank. […] Each mouse was subcutaneously inoculated with a small tumor tissue block approximately 3 mm in diameter which sheared from integrated tumor decollement form a tumor bearing mouse. 18 days after inoculation animals with tumor size at about 70 mmn^3 were selected and randomly divided into 4 groups, each group consisting of 8 mice. Then the mice were treated with isotype control+PBS, the anti-GREM1 antibody of the present disclosure at dose of 20 mg/kg, Cisplatin at dose of 3 mg/kg and combination of the anti-GREM1 antibody of the present disclosure and Cisplatin. Isotype control and the anti-GREM1 antibody of the present disclosure were administrated twice a week for 4 weeks by i.p. injection and PBS, while Cisplatin was administrated once a week for 4 weeks by i.v. injection. Animals were sacrificed at the end of the study with CO2 inhalation. Tumor size was measured twice or triple times a week in two dimensions using a caliper (INSIZE) and the volume was expressed in mmA3 using the formula: V=0.5 a*b^2 where a and b are the long and short diameters of the tumor, respectively. Results were analyzed using Prism GraphPad and expressed as mean±S.E.M. Comparisons between two groups were made by T-test, and the difference is considered significant if p is *<0.05 and **<0.01.

[2] = target: human Gremlin/GREM1 protein (Acro) (human) (UniProt O60565); experiment: BLI (ForteBio), human GREM1-his on NTA biosensor, antibody at 100, 50 and 25 nM
[3] = target: modified human GREM1-his (human) (UniProt O60565); experiment: blocking ELISA; competitor coated human BMP2; 1 ug/ml modified human GREM1-his detected with anti-his HRP
[4] = target: human Gremlin/GREM1 protein (Acro) (human) (UniProt O60565); experiment: ELISA, coated hGREM1 (ACRO)
[5] = target: modified human GREM1-his (human) (UniProt O60565); experiment: blocking ELISA; competitor coated human BMP4; 1 ug/ml modified human GREM1-his detected with anti-his HRP
[6] = target: human Gremlin/GREM1 protein (Acro) (human) (UniProt O60565); experiment: ELISA, binding to hGremlin-his
[7] = target: T1, human Gremlin/GREM1 protein (Acro) (human, UniProt O60565 25-184); experiment: ELISA, coated hGREM1 (ACRO)
T1 construct: Bought protein (ACRO); also called hGREM1 (ACRO); human GREM1; not shown: his tag
T1 sequence (looked up): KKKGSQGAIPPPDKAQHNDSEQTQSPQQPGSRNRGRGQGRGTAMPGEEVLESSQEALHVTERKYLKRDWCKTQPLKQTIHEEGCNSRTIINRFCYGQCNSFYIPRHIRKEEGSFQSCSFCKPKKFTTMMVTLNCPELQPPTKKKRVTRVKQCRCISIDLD
Method: (§1) A transparent polystyrene culture plate (BEAVER) was coated with a high pH coating buffer containing 0.5 μg/ml hGREM1 (ACRO) and mouse gremlin (R&D) at 100 μl/well at 4° C. overnight. Then, the culture plate was washed once with PBS and 0.1% of Tween 20 (Sigma) on an automatic culture plate washer. 100 μl of a blocking solution consisting of PBS, 1% of BSA, 1% of standard goat serum and 0.50% of Tween 20 (Sigma) was added into each well for incubation at room temperature for 2 hours. Then, 100 μl of an antibody (started with 2 μg/ml and continuously diluted) in an antibody dilution buffer containing PBS, 1% of BSA, 1% of standard goat serum and 0.01% of Tween 20 was added into each well of the culture plate for incubation at room temperature for 1 hour. Then, the culture plate was washed with 200 μl of a solution containing PBS and 0.1% of Tween 20 for three times, and goat anti-mouse IgG-HRP (Abcam) at a ratio of 1:10000 was added at 100 μl/well for incubation at room temperature for 1 hour. Then, the culture plate was washed with a solution containing PBS and 0.1% of Tween 20 for 3 times. Finally, TMB (Pierce) was added into each well at 100 μl/well, and several minutes later, 50 μl of a termination solution was added into each well. The culture plate was read on a Multiscan FC microplate reader (Thermo Scientific) at 450 nM.

[8] = target: T1, human Gremlin/GREM1 protein (Acro); experiment: BLI (ForteBio), human GREM1-his on NTA biosensor, antibody at 100, 50 and 25 nM
Method: (§2) The concentration of 0 nM was used as a reference control. The antibody to be tested was diluted to a concentration of 100 nM, 50 nM and 25 nM with a ForteBio kinetic buffer (including PBS with a pH value of 7.4, 0.1% of BSA and 0.002% of Tween-20). […] Then, dissociation was performed in a kinetic buffer for 90 seconds to obtain Koff factor data.

[9] = target: T1, human Gremlin/GREM1 protein (Acro); experiment: BLI (ForteBio), human GREM1-his on NTA biosensor
Method: as §2

Human GREM1 = target: T2, Human GREM1 (Homo sapiens, UniProt O60565); experiment: Binding affinity to human GREM1 through ELISA; details: for EC50 of binding to hGremlin-his: Table 17
T2 construct: His; purchased ACRO
T2 sequence (O60565 25-184): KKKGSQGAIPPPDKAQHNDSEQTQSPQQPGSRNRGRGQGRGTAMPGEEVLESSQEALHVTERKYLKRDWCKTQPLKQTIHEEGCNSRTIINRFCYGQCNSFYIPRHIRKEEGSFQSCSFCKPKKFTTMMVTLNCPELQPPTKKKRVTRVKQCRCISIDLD
Method: as §1, with “nM. As shown in Table 16 and Table 17, compared with a reference antibody 6245P, the anti-GREM1 antibody used in the present disclosure and other humanized anti-GREM1 antibodies (e.g., Hu14E3_HaLb, Hu14E3_HbLa, Hu14E3_HbLb, Hu14E3_HcLa and Hu14E3_HcLb) have better binding affinity with human GREM1.” for “nM.”

[10] = target: T1, human Gremlin/GREM1 protein (Acro); experiment: ELISA, binding to hGremlin-his
Method: as §1

## N.N.[Cl][Pt][Cl] [Cisplatin, reference compound]
[1]
  TGI (%): 59.79%
  Tumor size (mm^3, mean +/− S.E.M): 479.41 +/− 104.05 mm^3

B1: reference antibody 6245P (antibody, from another filing, IgG4, V domains shown)
VH: EVQLVESGGGLVQPGGSLRLSCAASGFTFNSFWMSWVRQAPGKGLEWVANIKQDGSEKYYVDSVKGRFTISRDNAKNSVYLQMNSLRAEDTAVYYCARDLVTSFDYWGQGTLVTVSS
VL: DIQMTQSPSSLSASVGDRVTITCQASQDINNYLNWYQQKPGKAPKLLIYDASYLETGVPSGFSGSGSGTDFTFTISSLQPEDIATYYCQQYDSLPYTFGQGTKLEIK
[2]
  Kd: 2.58 nM
[3]
  IC50: 797 ng/mL
[4]
  EC50: 57.5 ng/mL
[5]
  IC50: 638 ng/mL
[6]
  EC50: 57.5 ng/mL

B2: Hu14E3_HaLa (antibody, human IgG1, kappa, V domains shown)
VH: QVQLVQSGSELKKPGASVKVSCKASGYTFTTYGMAWMRQAPGQGLEWMGWINTLSGEPTYADDFKGRFVFSLDTSVSTAYLQISSLKAEDTAVYYCAREPMDYWGQGTMVTVSS
VL: DVVMTQSPLSLPVTLGQPASISCKSSQSLLDSDGKTYLSWLQQRPGQSPRRLIYLVSKLDSGVPDRFSGSGSGTDFTLKISRVEAEDVGVYYCWQGAHFPLTFGQGTKLEIKR
notes: also called anti-GREM1 antibody used in the present disclosure; humanized 14E3
[7]
  EC50: 6.9 ng/mL
[8]
  Kd: < 0.001 nM
[9]
  Kd: < 1 nM

B3: Hu14E3_HbLb (antibody, human IgG1, V domains shown)
VH: QIQLVQSGSELKKPGASVKVSCKASGYTFTTYGMAWMRQAPGQGLEWMGWINTLSGEPTYADDFKGRFAFSLDTSVSTAYLQISSLKAEDTAVYYCAREPMDYWGQGTMVTVSS
VL: DVVMTQSPLSLPVTLGQPASISCKSSQSLLDSDGKTYLSWLQQRPGQSPRRLISLVSKLDSGVPDRFSGSGSGTDFTLKISRVEAEDVGVYYCWQGAHFPLTFGQGTKLEIK
notes: also called humanized 14E3
Human GREM1
  EC50 of binding to hGremlin-his: 6.2 ng/mL
[10]
  EC50: 6.2 ng/mL

B4: Hu14E3_HaLb (antibody, human IgG1, V domains shown)
VH: QVQLVQSGSELKKPGASVKVSCKASGYTFTTYGMAWMRQAPGQGLEWMGWINTLSGEPTYADDFKGRFVFSLDTSVSTAYLQISSLKAEDTAVYYCAREPMDYWGQGTMVTVSS
VL: DVVMTQSPLSLPVTLGQPASISCKSSQSLLDSDGKTYLSWLQQRPGQSPRRLISLVSKLDSGVPDRFSGSGSGTDFTLKISRVEAEDVGVYYCWQGAHFPLTFGQGTKLEIK
notes: also called humanized 14E3
Human GREM1
  EC50 of binding to hGremlin-his: 5.6 ng/mL
[10]
  EC50: 5.6 ng/mL

B5: Hu14E3_HbLa (antibody, human IgG1, V domains shown)
VH: QIQLVQSGSELKKPGASVKVSCKASGYTFTTYGMAWMRQAPGQGLEWMGWINTLSGEPTYADDFKGRFAFSLDTSVSTAYLQISSLKAEDTAVYYCAREPMDYWGQGTMVTVSS
VL: DVVMTQSPLSLPVTLGQPASISCKSSQSLLDSDGKTYLSWLQQRPGQSPRRLIYLVSKLDSGVPDRFSGSGSGTDFTLKISRVEAEDVGVYYCWQGAHFPLTFGQGTKLEIK
notes: also called humanized 14E3
Human GREM1
  EC50 of binding to hGremlin-his: 6.0 ng/mL
[10]
  EC50: 6 ng/mL

B6: Hu14E3_HcLa (antibody, human IgG1, V domains shown)
VH: QIQLVQSGSELKKPGASVKVSCKASGSTFTTYGMAWMKQAPGQGLTWMGWINTLSGEPTYADDFKGRFAFSLDTSVSTAYLQISSLKAEDTAVYYCAREPMDYWGQGTMVTVSS
VL: DVVMTQSPLSLPVTLGQPASISCKSSQSLLDSDGKTYLSWLQQRPGQSPRRLIYLVSKLDSGVPDRFSGSGSGTDFTLKISRVEAEDVGVYYCWQGAHFPLTFGQGTKLEIK
notes: also called humanized 14E3
Human GREM1
  EC50 of binding to hGremlin-his: 6.6 ng/mL
[10]
  EC50: 6.6 ng/mL

B7: Hu14E3_HcLb (antibody, human IgG1, V domains shown)
VH: QIQLVQSGSELKKPGASVKVSCKASGSTFTTYGMAWMKQAPGQGLTWMGWINTLSGEPTYADDFKGRFAFSLDTSVSTAYLQISSLKAEDTAVYYCAREPMDYWGQGTMVTVSS
VL: DVVMTQSPLSLPVTLGQPASISCKSSQSLLDSDGKTYLSWLQQRPGQSPRRLISLVSKLDSGVPDRFSGSGSGTDFTLKISRVEAEDVGVYYCWQGAHFPLTFGQGTKLEIK
notes: also called humanized 14E3
Human GREM1
  EC50 of binding to hGremlin-his: 6.1 ng/mL
[10]
  EC50: 6.1 ng/mL

B8: Hu14E3_HaLa: humanized 14E3, heavy chain variable region SEQ ID NO: 7, light chain variable region SEQ ID NO: 8; antibody used in the examples (antibody, V domains shown)
VH: QVQLVQSGSELKKPGASVKVSCKASGYTFTTYGMAWMRQAPGQGLEWMGWINTLSGEPTYADDFKGRFVFSLDTSVSTAYLQISSLKAEDTAVYYCAREPMDYWGQGTMVTVSS
VL: DVVMTQSPLSLPVTLGQPASISCKSSQSLLDSDGKTYLSWLQQRPGQSPRRLIYLVSKLDSGVPDRFSGSGSGTDFTLKISRVEAEDVGVYYCWQGAHFPLTFGQGTKLEIK
Human GREM1; Table 16
  EC50 (ng/ml) Human GREM1: 6.90 ng/mL
Human GREM1
  EC50 of binding to hGremlin-his: 6.9 ng/mL
[1]
  TGI (%): 42.92%
  Tumor size (mm^3, mean +/− S.E.M): 680.59 +/− 163.73 mm^3
